Measured values published in patent US20210163606A1 (ATYR PHARMA, published 2021).

Molecular target: T1, mouse NRP2 I407V on transfected Expi293 cells (Mouse, UniProt O35375 21-931)
T1 construct: whole, on cells
T1 sequence (looked up): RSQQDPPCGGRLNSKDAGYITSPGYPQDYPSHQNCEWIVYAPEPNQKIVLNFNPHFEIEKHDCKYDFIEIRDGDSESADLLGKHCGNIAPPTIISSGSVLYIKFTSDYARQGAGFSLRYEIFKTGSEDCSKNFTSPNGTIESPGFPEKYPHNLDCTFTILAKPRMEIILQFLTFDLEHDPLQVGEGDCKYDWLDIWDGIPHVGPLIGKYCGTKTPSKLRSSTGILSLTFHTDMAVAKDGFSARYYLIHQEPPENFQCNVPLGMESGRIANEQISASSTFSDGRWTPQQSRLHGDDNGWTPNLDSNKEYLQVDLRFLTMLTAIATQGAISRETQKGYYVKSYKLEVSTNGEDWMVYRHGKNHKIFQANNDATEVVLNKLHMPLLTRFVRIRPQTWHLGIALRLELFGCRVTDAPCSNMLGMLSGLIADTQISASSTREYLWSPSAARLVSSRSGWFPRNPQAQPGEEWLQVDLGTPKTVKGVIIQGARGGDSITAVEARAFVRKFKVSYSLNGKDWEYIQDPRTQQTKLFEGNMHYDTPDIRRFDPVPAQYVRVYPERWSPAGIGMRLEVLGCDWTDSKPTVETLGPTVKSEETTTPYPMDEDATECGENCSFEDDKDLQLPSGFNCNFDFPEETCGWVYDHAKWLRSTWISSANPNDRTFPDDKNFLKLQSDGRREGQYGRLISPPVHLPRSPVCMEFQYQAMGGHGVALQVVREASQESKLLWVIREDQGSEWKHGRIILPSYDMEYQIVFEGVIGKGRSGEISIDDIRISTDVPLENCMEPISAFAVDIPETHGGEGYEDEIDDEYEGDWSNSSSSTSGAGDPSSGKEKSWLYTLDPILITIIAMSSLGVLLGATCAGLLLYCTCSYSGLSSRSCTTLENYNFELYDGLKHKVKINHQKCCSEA
Experiment: flow cytometry, aNRP2-10v10 at 10 nM on transfected Expi293 cells gated on live, single, NRP2 expressing cells [panel 11B]
Experimental: FIGS. 11A-11B show the measurement of antibody binding to Expi293 cells over-expressing NRP2. […] Gating for NRP2 over-expressing cells is shown.
Human NRP2a (version 2; see Table N1) and mouse NRP2v2 cDNAs were obtained from Origene. […] Human and mouse NRP2, expression vectors, along with expression vectors encoding all 6 mutants were transfected into Expi293 cells at 1 million cells/mL, by standard techniques. Approximately 40 hours post transfection cells were co-stained with aNRP2-10v10, and a species agnostic anti-NRP2 a1 specific binding antibody.

B1: aNRP2-10v10 (antibody, V domains shown)
VH: EVQLVQSGAEVKKPGATVKISCKVSGFNIKDYYVHWVQQAPGKGLEWMGRIDVEDDETKYAPKFQGRVTITADTSTDTAYMELSSLRSEDTAVYYCATPIYGAREAWFAYWGQGTLVTVSS
VL: DIQMTQSPSSLSASVGDRVTITCTASSSVSSSYLHWYQQKPGKAPKLLIYRTSNLASGVPSRFSGSGSGTDFTLTISSLQPEDFATYYCHQYYRSPPTFGGGTKVEIK
binding result: no binding (tested: 10 nM)
